Consider 68 molecules from patent US20170165338A1.

Where only a bound is given, the exact number is not on record here.

One assay deals with HLA-A*02 (human). The assay is described as follows: UV-exchange b2m ELISA.
In turn, LLNPVVEFV yielded a peptide exchange yield of 50 to 75%.
Same read-out and setting: the value for RLLGTEFQV was 50 to 75%; that for MMVGDLLEV was 50 to 75%; that for SVLDSTAKV was 20 to 49%.
Same read-out and setting: the value for KIIDFLSAL was 50 to 75%; that for TLTSLLAQA was 50 to 75%.
Still for that read-out and setting: the value for FISERVEVV was > 75%; that for ILGDLSHLL was 50 to 75%; that for AILAHLNTV was > 75%.
In the case of KLQNIMMLL, the peptide exchange yield is 20 to 49%.

In the next assay the target is HLA-A*24 (human). The assay is described as follows: UV-exchange b2m ELISA. In general terms: ELISA stands for enzyme-linked immunosorbent assay.
VFKASKITF: the peptide exchange yield lay within 50 to 75%.
With LYLDKATLI, the peptide exchange yield lay in the range of 50 to 75%.
On the same count and under the same terms, under RYPDNLKHL stands 20 to 49%; under FYSRLLQKF, 50 to 75%; under KFVDSTFYL, > 75%.
On the same count and under the same terms, the value for FFPPTRQMGLLF was > 75%; that for YYLEVGKTLI was > 75%.
The same measure, in the same setting: under AYLHSHALI stands > 75%; under RYFKGLVF, 50 to 75%.
Take EFGSLHLEFL: the peptide exchange yield is < 20%.
The same measure, in the same setting: under RFHPTPLLL stands > 75%; under IFIEVFSHF, 50 to 75%.
Still for that read-out and setting: under IYQLDTASI stands 50 to 75%.
Still for that read-out and setting: under RYISDQLFTNF stands > 75%; under TYTQDFNKF, 50 to 75%.
EYINQGDLHEF: the peptide exchange yield was in the range of 50 to 75%.
In turn, EYPLVINTL registered a peptide exchange yield of 50 to 75%.
The same measure, in the same setting: under RYPDNLKHLYL stands > 75%; under TYIKPISKL, 50 to 75%.
Same read-out and setting: under VYRDETGELF stands 50 to 75%; under QYLENLEKL, 50 to 75%; under WYVNGVNYF, 20 to 49%.
Still for that read-out and setting: the value for VFQNFPLLF was > 75%; that for QYLQDAYSF was > 75%; that for VYVSDIQEL was 50 to 75%.
For the molecule TYLRDQHFL, the peptide exchange yield was > 75%.
Still for that read-out and setting: the value for TYGDAGLTYTF was 50 to 75%; that for IFLDYEAGTLSF was > 75%.
Same read-out and setting: under TYTTVPRVAF stands > 75%; under IYDDSFIRPVTF, 50 to 75%; under IFPQFLYQF, > 75%.
RYLNKAFHI had a peptide exchange yield of 50 to 75%.
Still for that read-out and setting: the value for KYMVYPQTF was > 75%.
As to MYDSYWRQF, the peptide exchange yield was > 75%.
Still for that read-out and setting: under LYNKGFIYL stands > 75%; under LYLDIINLF, > 75%.
Molecule IYKVGAPTI registered a peptide exchange yield of 50 to 75%.
Still for that read-out and setting: under GFFIFNERF stands 50 to 75%; under RYSTGLAGNLL, 50 to 75%.
On the same count and under the same terms, the value for VYTLDIPVL was > 75%.
Consider TYIESASEL, for which the peptide exchange yield was in the range of 50 to 75%.
Same read-out and setting: the value for IYTMIYRNL was > 75%.
Same read-out and setting: the value for KYPVEWAKF was > 75%; that for HYSQELSLLYL was > 75%; that for VFTSTARAF was 50 to 75%.
Still for that read-out and setting: under EYQENFLSF stands 50 to 75%; under IYLVSIPEL, > 75%.
The molecule LYLKLWNLI returned a peptide exchange yield of 50 to 75%.
The same measure, in the same setting: the value for YYVYIMNHL was 50 to 75%; that for VYGFQWRHF was > 75%.
Same read-out and setting: under SYALLTYMI stands > 75%; under YFDKVVTL, 20 to 49%.
Still for that read-out and setting: under LYHDIFSRL stands > 75%; under VYPWLGALL, > 75%.
In the case of KYIPYKYVI, the peptide exchange yield lay in the range of 50 to 75%.
The same measure, in the same setting: under VHIPEVYLI stands 50 to 75%.
Same read-out and setting: the value for QYSSVFKSL was > 75%; that for KYTSWYVAL was > 75%.
